# Key:
# HLA-C*12:03 = test: IEDB peptide-MHC binding, purified MHC/direct/fluorescence; filed as Kd, often an IC50 or EC50 that approximates it; ≥ and ≤ were set here for values at or beyond the usual limits of such assays; details: source organism: Cryptosporidium parvum Iowa II
# HLA-B*08:01 = test: IEDB peptide-MHC binding, purified MHC/competitive/fluorescence; filed as Kd, often an IC50 or EC50 that approximates it; ≥ and ≤ were set here for values at or beyond the usual limits of such assays; details: source organism: Cryptosporidium parvum Iowa II
# HLA-A*68:02 = test: as above; details: source organism: Cryptosporidium parvum Iowa II
# HLA-A*30:01 = test: as above; details: source organism: Cryptosporidium parvum Iowa II
# HLA-A*01:01 [1] = test: as above; details: source organism: Cryptosporidium parvum Iowa II
# HLA-A*66:01 = test: as above; details: source organism: Cryptosporidium parvum Iowa II
# HLA-B*44:02 = test: as above; details: source organism: Cryptosporidium parvum Iowa II
# HLA-A*23:01 = test: as above; details: source organism: Cryptosporidium parvum Iowa II
# HLA-B*51:01 [2] = test: as above; details: source organism: Cryptosporidium parvum Iowa II
# HLA-A*03:01 [3] = test: as above; details: source organism: Cryptosporidium parvum Iowa II
# HLA-B*07:02 = test: as above; details: source organism: Cryptosporidium parvum Iowa II
# HLA-B*46:01 [4] = test: as above; details: source organism: Cryptosporidium parvum Iowa II
# HLA-B*18:01 [5] = test: as above; details: source organism: Cryptosporidium parvum Iowa II
# HLA-B*27:05 [6] = test: as above; details: source organism: Cryptosporidium parvum Iowa II
# HLA-B*14:02 = test: as above; details: source organism: Cryptosporidium parvum Iowa II
# HLA-A*29:02 = test: as above; details: source organism: Cryptosporidium parvum Iowa II
# HLA-A*26:01 = test: as above; details: source organism: Cryptosporidium parvum Iowa II
# HLA-A*11:01 [7] = test: as above; details: source organism: Cryptosporidium parvum Iowa II
# HLA-B*40:01 [8] = test: as above; details: source organism: Cryptosporidium parvum Iowa II
# HLA-B*27:03 = test: as above; details: source organism: Cryptosporidium parvum Iowa II
# HLA-B*53:01 = test: as above; details: source organism: Cryptosporidium parvum Iowa II
# HLA-A*24:03 = test: as above; details: source organism: Cryptosporidium parvum Iowa II
# HLA-A*30:02 = test: as above; details: source organism: Cryptosporidium parvum Iowa II
# HLA-B*15:01 = test: as above
# HLA-B*39:01 = test: as above; details: source organism: Cryptosporidium parvum Iowa II
# HLA-B*38:01 = test: IEDB peptide-MHC binding, purified MHC/direct/fluorescence; filed as Kd, often an IC50 or EC50 that approximates it; ≥ and ≤ were set here for values at or beyond the usual limits of such assays; details: source organism: Mycobacterium tuberculosis str. Haarlem
# HLA-A*01:01 [9] = test: as above; details: source organism: Mycobacterium tuberculosis
# HLA-B*58:01 = test: as above; details: source organism: Mycobacterium tuberculosis
# HLA-A*02:01 = test: as above; details: source organism: Mycobacterium tuberculosis
# HLA-A*31:01 = test: as above; details: source organism: Mycobacterium tuberculosis
# HLA-B*51:01 [10] = test: as above; details: source organism: Mycobacterium tuberculosis
# HLA-B*48:01 = test: as above; details: source organism: Mycobacterium tuberculosis
# HLA-A*03:01 [11] = test: as above; details: source organism: Mycobacterium tuberculosis
# HLA-A*69:01 = test: as above; details: source organism: Mycobacterium tuberculosis
# HLA-B*57:01 = test: as above; details: source organism: Mycobacterium tuberculosis
# HLA-B*46:01 [12] = test: as above; details: source organism: Mycobacterium tuberculosis
# HLA-B*18:01 [13] = test: as above; details: source organism: Mycobacterium tuberculosis
# HLA-B*27:05 [14] = test: as above; details: source organism: Mycobacterium tuberculosis
# HLA-B*15:17 = test: as above; details: source organism: Mycobacterium tuberculosis
# HLA-A*11:01 [15] = test: as above; details: source organism: Mycobacterium tuberculosis
# HLA-B*40:01 [16] = test: as above; details: source organism: Mycobacterium tuberculosis
sequence,measurement,setting,value
FTWQHNYYL,Kd,HLA-C*12:03,0.335 µM
same,Kd,HLA-B*08:01,≥ 5 µM
same,Kd,HLA-A*68:02,≤ 0.001 µM
same,Kd,HLA-A*30:01,≥ 5 µM
same,Kd,HLA-A*01:01 [1],0.463 µM
same,Kd,HLA-A*66:01,≥ 5 µM
same,Kd,HLA-B*44:02,≥ 5 µM
same,Kd,HLA-A*23:01,0.149 µM
same,Kd,HLA-B*51:01 [2],≥ 20 µM
same,Kd,HLA-A*03:01 [3],≥ 20 µM
same,Kd,HLA-B*07:02,≥ 5 µM
same,Kd,HLA-B*46:01 [4],≥ 20 µM
same,Kd,HLA-B*18:01 [5],≥ 20 µM
same,Kd,HLA-B*27:05 [6],≥ 5 µM
same,Kd,HLA-B*14:02,≥ 20 µM
same,Kd,HLA-A*29:02,0.0509 µM
same,Kd,HLA-A*26:01,≥ 20 µM
same,Kd,HLA-A*11:01 [7],≥ 5 µM
same,Kd,HLA-B*40:01 [8],≥ 5 µM
same,Kd,HLA-B*27:03,≥ 20 µM
same,Kd,HLA-B*53:01,≥ 5 µM
same,Kd,HLA-A*24:03,0.041 µM
same,Kd,HLA-A*30:02,≥ 5 µM
same,Kd,HLA-B*15:01; source organism: Cryptosporidium parvum Iowa II,≥ 20 µM
same,Kd,HLA-B*39:01,≥ 20 µM
VPRENATAF,Kd,HLA-B*38:01,≥ 20 µM
same,Kd,HLA-A*01:01 [9],≥ 20 µM
same,Kd,HLA-B*58:01,≥ 20 µM
same,Kd,HLA-A*02:01,≥ 20 µM
same,Kd,HLA-A*31:01,≥ 20 µM
same,Kd,HLA-B*51:01 [10],≥ 20 µM
same,Kd,HLA-B*48:01,≥ 20 µM
same,Kd,HLA-A*03:01 [11],≥ 20 µM
same,Kd,HLA-A*69:01,≥ 20 µM
same,Kd,HLA-B*57:01,≥ 20 µM
same,Kd,HLA-B*46:01 [12],15.9 µM
same,Kd,HLA-B*18:01 [13],0.598 µM
same,Kd,HLA-B*27:05 [14],≥ 20 µM
same,Kd,HLA-B*15:17,≥ 20 µM
same,Kd,HLA-A*11:01 [15],≥ 20 µM
same,Kd,HLA-B*40:01 [16],≥ 20 µM
same,Kd,HLA-B*15:01; source organism: Mycobacterium tuberculosis variant bovis BCG str. Pasteur 1173P2,≥ 20 µM
